Assay results as given in publication PMC6499326 (Genes & Development, 2019).

Experiments:
[1] = molecular target: T1, His-MTR4^71–1042 (human, UniProt P42285 71-1042); experiment: SEC
T1 sequence: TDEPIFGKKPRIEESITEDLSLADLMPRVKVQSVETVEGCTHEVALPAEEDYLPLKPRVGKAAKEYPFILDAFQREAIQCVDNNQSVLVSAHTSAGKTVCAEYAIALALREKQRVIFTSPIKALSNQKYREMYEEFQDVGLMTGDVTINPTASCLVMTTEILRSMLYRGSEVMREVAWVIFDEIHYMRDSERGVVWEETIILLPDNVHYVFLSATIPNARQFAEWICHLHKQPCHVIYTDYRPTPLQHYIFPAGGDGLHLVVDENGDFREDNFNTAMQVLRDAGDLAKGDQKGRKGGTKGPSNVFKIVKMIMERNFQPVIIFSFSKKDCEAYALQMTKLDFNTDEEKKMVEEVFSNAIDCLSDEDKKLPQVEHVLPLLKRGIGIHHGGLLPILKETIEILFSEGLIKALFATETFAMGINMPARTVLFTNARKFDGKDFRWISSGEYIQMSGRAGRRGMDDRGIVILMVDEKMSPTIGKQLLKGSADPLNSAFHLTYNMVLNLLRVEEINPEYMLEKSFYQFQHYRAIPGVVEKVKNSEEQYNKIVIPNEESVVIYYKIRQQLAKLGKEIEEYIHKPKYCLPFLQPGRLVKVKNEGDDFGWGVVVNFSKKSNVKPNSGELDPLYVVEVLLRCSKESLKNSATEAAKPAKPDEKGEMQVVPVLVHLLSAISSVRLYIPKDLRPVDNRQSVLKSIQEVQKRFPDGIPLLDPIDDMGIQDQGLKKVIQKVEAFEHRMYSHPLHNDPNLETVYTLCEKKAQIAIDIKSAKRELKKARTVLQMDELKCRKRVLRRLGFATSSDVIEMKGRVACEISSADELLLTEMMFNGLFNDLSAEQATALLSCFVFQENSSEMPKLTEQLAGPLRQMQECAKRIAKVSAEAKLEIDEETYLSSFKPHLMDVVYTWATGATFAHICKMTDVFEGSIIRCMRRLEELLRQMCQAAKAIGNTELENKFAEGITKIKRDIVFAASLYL

[2] = molecular target: T2, His-NRDE2^111–1164 (human, UniProt Q9H7Z3 111-1164); experiment: pull-down
T2 sequence: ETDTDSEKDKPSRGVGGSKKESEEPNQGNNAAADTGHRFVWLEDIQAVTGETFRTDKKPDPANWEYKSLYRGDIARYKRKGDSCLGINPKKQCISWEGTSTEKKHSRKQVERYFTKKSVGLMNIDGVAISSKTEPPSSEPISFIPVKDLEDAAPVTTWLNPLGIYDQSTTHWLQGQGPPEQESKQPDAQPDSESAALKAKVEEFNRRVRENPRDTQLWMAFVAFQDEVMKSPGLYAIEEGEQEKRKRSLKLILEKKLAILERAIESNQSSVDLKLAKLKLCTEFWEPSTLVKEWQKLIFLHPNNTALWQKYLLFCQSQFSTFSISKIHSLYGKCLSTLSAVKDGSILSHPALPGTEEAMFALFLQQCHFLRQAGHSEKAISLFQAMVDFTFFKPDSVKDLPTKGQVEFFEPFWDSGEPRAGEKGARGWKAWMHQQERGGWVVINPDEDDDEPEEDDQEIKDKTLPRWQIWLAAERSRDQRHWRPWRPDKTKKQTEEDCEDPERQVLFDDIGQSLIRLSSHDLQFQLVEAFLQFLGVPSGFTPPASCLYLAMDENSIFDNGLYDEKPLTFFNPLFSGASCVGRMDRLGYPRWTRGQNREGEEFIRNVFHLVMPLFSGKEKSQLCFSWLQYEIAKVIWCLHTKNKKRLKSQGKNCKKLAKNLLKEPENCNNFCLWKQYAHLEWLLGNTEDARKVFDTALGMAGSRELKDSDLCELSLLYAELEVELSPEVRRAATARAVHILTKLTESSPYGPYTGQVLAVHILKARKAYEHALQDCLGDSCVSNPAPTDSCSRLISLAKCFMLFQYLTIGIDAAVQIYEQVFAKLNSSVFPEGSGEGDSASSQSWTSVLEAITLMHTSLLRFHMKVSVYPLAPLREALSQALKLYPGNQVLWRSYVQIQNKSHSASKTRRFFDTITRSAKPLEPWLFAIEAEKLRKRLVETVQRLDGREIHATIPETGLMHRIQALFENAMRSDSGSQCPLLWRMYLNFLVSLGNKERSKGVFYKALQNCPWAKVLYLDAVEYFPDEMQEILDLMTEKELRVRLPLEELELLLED

[3] = molecular target: T3, MTR4;NRDE2 MID (Homo sapiens;Homo sapiens, UniProt P42285;Q9H7Z3 71-1042;163-266, |); experiment: EMSA
T3 sequence 1: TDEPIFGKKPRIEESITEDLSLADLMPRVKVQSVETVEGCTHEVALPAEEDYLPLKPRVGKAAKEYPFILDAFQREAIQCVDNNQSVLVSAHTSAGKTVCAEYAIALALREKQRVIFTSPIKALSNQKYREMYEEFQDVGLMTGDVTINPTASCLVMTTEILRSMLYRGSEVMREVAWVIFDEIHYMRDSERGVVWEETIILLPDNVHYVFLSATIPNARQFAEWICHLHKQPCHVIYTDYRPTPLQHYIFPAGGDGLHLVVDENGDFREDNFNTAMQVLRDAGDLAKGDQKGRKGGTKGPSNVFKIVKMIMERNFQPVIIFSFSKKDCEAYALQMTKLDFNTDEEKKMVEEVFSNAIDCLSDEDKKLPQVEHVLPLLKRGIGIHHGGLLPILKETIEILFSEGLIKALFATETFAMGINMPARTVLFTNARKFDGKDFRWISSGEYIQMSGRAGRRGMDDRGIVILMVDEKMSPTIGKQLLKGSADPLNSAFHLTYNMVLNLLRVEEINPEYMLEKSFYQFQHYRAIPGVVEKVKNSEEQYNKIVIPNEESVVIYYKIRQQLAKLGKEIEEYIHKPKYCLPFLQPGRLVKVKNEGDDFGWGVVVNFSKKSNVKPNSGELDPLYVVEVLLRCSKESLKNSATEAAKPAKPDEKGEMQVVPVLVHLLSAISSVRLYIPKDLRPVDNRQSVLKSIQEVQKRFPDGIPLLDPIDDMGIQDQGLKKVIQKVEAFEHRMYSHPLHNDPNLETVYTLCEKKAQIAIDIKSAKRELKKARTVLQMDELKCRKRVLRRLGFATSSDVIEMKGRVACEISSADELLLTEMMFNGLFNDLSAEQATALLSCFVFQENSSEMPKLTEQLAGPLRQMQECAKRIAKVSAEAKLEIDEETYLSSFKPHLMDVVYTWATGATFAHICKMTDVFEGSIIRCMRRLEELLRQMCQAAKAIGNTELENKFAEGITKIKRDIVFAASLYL
T3 sequence 2: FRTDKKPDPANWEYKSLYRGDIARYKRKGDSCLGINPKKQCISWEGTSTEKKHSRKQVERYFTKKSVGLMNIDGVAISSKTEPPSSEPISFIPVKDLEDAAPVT

B1: untagged NRDE2^111–1164 (domain or fragment)
chain: ETDTDSEKDKPSRGVGGSKKESEEPNQGNNAAADTGHRFVWLEDIQAVTGETFRTDKKPDPANWEYKSLYRGDIARYKRKGDSCLGINPKKQCISWEGTSTEKKHSRKQVERYFTKKSVGLMNIDGVAISSKTEPPSSEPISFIPVKDLEDAAPVTTWLNPLGIYDQSTTHWLQGQGPPEQESKQPDAQPDSESAALKAKVEEFNRRVRENPRDTQLWMAFVAFQDEVMKSPGLYAIEEGEQEKRKRSLKLILEKKLAILERAIESNQSSVDLKLAKLKLCTEFWEPSTLVKEWQKLIFLHPNNTALWQKYLLFCQSQFSTFSISKIHSLYGKCLSTLSAVKDGSILSHPALPGTEEAMFALFLQQCHFLRQAGHSEKAISLFQAMVDFTFFKPDSVKDLPTKGQVEFFEPFWDSGEPRAGEKGARGWKAWMHQQERGGWVVINPDEDDDEPEEDDQEIKDKTLPRWQIWLAAERSRDQRHWRPWRPDKTKKQTEEDCEDPERQVLFDDIGQSLIRLSSHDLQFQLVEAFLQFLGVPSGFTPPASCLYLAMDENSIFDNGLYDEKPLTFFNPLFSGASCVGRMDRLGYPRWTRGQNREGEEFIRNVFHLVMPLFSGKEKSQLCFSWLQYEIAKVIWCLHTKNKKRLKSQGKNCKKLAKNLLKEPENCNNFCLWKQYAHLEWLLGNTEDARKVFDTALGMAGSRELKDSDLCELSLLYAELEVELSPEVRRAATARAVHILTKLTESSPYGPYTGQVLAVHILKARKAYEHALQDCLGDSCVSNPAPTDSCSRLISLAKCFMLFQYLTIGIDAAVQIYEQVFAKLNSSVFPEGSGEGDSASSQSWTSVLEAITLMHTSLLRFHMKVSVYPLAPLREALSQALKLYPGNQVLWRSYVQIQNKSHSASKTRRFFDTITRSAKPLEPWLFAIEAEKLRKRLVETVQRLDGREIHATIPETGLMHRIQALFENAMRSDSGSQCPLLWRMYLNFLVSLGNKERSKGVFYKALQNCPWAKVLYLDAVEYFPDEMQEILDLMTEKELRVRLPLEELELLLED
With B1 the “stoichiometry N” value [1] was 1.

B2: MBP-MTR4^FL (natural protein)
chain: MADAFGDELFSVFEGDSTTAAGTKKDKEKDKGKWKGPPGSADKAGKRFDGKLQSESTNNGKNKRDVDFEGTDEPIFGKKPRIEESITEDLSLADLMPRVKVQSVETVEGCTHEVALPAEEDYLPLKPRVGKAAKEYPFILDAFQREAIQCVDNNQSVLVSAHTSAGKTVCAEYAIALALREKQRVIFTSPIKALSNQKYREMYEEFQDVGLMTGDVTINPTASCLVMTTEILRSMLYRGSEVMREVAWVIFDEIHYMRDSERGVVWEETIILLPDNVHYVFLSATIPNARQFAEWICHLHKQPCHVIYTDYRPTPLQHYIFPAGGDGLHLVVDENGDFREDNFNTAMQVLRDAGDLAKGDQKGRKGGTKGPSNVFKIVKMIMERNFQPVIIFSFSKKDCEAYALQMTKLDFNTDEEKKMVEEVFSNAIDCLSDEDKKLPQVEHVLPLLKRGIGIHHGGLLPILKETIEILFSEGLIKALFATETFAMGINMPARTVLFTNARKFDGKDFRWISSGEYIQMSGRAGRRGMDDRGIVILMVDEKMSPTIGKQLLKGSADPLNSAFHLTYNMVLNLLRVEEINPEYMLEKSFYQFQHYRAIPGVVEKVKNSEEQYNKIVIPNEESVVIYYKIRQQLAKLGKEIEEYIHKPKYCLPFLQPGRLVKVKNEGDDFGWGVVVNFSKKSNVKPNSGELDPLYVVEVLLRCSKESLKNSATEAAKPAKPDEKGEMQVVPVLVHLLSAISSVRLYIPKDLRPVDNRQSVLKSIQEVQKRFPDGIPLLDPIDDMGIQDQGLKKVIQKVEAFEHRMYSHPLHNDPNLETVYTLCEKKAQIAIDIKSAKRELKKARTVLQMDELKCRKRVLRRLGFATSSDVIEMKGRVACEISSADELLLTEMMFNGLFNDLSAEQATALLSCFVFQENSSEMPKLTEQLAGPLRQMQECAKRIAKVSAEAKLEIDEETYLSSFKPHLMDVVYTWATGATFAHICKMTDVFEGSIIRCMRRLEELLRQMCQAAKAIGNTELENKFAEGITKIKRDIVFAASLYL
B2: binds [2].

With UGUCUGACUGAAGGACCAGGUGCUGUCUGA (ssRNA) [5' FAM RNA (EMSA)] the binding signal [3] was ~8 fold higher affinity than MTR4 alone.
